Laboratory results taken from paper PMC10397247.
One block for each binder: values may come before it.

Key:
Assay in all cases: two-hybrid library CCNG1;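 also: natural log of median RNA to DNA barcode read ratio; higher means stronger binding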
4H1393-bN = biological target: T1, 4H1393-bN
T1 chain: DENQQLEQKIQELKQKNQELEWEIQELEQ

4H1449-bN = biological target: T2, 4H1449-bN
T2 chain: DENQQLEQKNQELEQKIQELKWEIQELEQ

4H1629-bN = biological target: T3, 4H1629-bN
T3 chain: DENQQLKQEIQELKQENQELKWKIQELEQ

4H1710-bN = biological target: T4, 4H1710-bN
T4 chain: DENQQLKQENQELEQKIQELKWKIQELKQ

4H1804-bN = biological target: T5, 4H1804-bN
T5 chain: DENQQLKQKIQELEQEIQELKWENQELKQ

4H1985-bN = biological target: T6, 4H1985-bN
T6 chain: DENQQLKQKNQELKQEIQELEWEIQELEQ

4H3129-bN = biological target: T7, 4H3129-bN
T7 chain: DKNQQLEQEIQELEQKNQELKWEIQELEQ

4H3172-bN = biological target: T8, 4H3172-bN
T8 chain: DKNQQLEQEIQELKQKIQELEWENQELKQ

4H3414-bN = biological target: T9, 4H3414-bN
T9 chain: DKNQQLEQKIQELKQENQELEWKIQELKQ

4H3631-bN = biological target: T10, 4H3631-bN
T10 chain: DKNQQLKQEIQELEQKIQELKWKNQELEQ

4H3638-bN = biological target: T11, 4H3638-bN
T11 chain: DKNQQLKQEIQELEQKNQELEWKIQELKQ

4H3817-bN = biological target: T12, 4H3817-bN
T12 chain: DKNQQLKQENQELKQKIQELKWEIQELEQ

4H3974-bN = biological target: T13, 4H3974-bN
T13 chain: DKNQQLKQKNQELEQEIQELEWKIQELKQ

4H570-bN = biological target: T14, 4H570-bN
T14 chain: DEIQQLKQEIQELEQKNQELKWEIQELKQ

4H584-bN = biological target: T15, 4H584-bN
T15 chain: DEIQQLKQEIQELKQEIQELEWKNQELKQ

4H619-bN = biological target: T16, 4H619-bN
T16 chain: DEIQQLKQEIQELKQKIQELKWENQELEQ

4H850-bA = biological target: T17, 4H850-bA
T17 chain: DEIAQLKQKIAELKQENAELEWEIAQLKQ

4H850-bN = biological target: T18, 4H850-bN
T18 chain: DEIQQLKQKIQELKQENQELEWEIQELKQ

4H906-bN = biological target: T19, 4H906-bN
T19 chain: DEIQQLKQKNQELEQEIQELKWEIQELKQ

4H1446-bN = biological target: T20, 4H1446-bN
T20 chain: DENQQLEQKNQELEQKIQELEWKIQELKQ

4H1828-bN = biological target: T21, 4H1828-bN
T21 chain: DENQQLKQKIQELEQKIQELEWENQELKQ

4H1845-bN = biological target: T22, 4H1845-bN
T22 chain: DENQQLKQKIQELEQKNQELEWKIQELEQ

4H2442-bN = biological target: T23, 4H2442-bN
T23 chain: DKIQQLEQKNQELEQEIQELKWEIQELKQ

4H2576-bN = biological target: T24, 4H2576-bN
T24 chain: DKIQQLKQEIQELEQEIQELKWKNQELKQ

4H2610-bN = biological target: T25, 4H2610-bN
T25 chain: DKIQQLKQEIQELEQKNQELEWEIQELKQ

4H2618-bN = biological target: T26, 4H2618-bN
T26 chain: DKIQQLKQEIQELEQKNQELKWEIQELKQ

4H2667-bN = biological target: T27, 4H2667-bN
T27 chain: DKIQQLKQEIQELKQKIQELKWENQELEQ

4H2697-bN = biological target: T28, 4H2697-bN
T28 chain: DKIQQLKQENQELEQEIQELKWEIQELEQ

4H2729-bN = biological target: T29, 4H2729-bN
T29 chain: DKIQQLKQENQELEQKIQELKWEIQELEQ

4H3112-bN = biological target: T30, 4H3112-bN
T30 chain: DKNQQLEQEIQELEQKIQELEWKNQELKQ

4H3185-bN = biological target: T31, 4H3185-bN
T31 chain: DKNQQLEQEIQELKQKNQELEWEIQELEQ

4H3189-bN = biological target: T32, 4H3189-bN
T32 chain: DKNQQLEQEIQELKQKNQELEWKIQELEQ

4H331-bN = biological target: T33, 4H331-bN
T33 chain: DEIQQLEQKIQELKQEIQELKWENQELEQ

4H3354-bN = biological target: T34, 4H3354-bN
T34 chain: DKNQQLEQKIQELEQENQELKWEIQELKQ

4H338-bN = biological target: T35, 4H338-bN
T35 chain: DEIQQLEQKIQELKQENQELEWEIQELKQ

4H3427-bN = biological target: T36, 4H3427-bN
T36 chain: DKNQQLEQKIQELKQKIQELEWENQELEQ

4H3606-bN = biological target: T37, 4H3606-bN
T37 chain: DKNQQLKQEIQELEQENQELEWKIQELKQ

4H370-bN = biological target: T38, 4H370-bN
T38 chain: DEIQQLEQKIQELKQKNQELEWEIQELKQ

4H3782-bN = biological target: T39, 4H3782-bN
T39 chain: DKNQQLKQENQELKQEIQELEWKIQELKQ

4H3843-bN = biological target: T40, 4H3843-bN
T40 chain: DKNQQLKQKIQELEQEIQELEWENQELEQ

4H3855-bN = biological target: T41, 4H3855-bN
T41 chain: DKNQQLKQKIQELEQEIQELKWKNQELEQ

4H4001-bN = biological target: T42, 4H4001-bN
T42 chain: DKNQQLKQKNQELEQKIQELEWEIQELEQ

4H454-bN = biological target: T43, 4H454-bN
T43 chain: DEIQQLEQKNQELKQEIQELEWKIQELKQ

4H462-bN = biological target: T44, 4H462-bN
T44 chain: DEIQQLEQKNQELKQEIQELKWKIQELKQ

4H568-bN = biological target: T45, 4H568-bN
T45 chain: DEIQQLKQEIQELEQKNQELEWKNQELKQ

4H607-bN = biological target: T46, 4H607-bN
T46 chain: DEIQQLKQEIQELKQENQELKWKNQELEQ

4H687-bN = biological target: T47, 4H687-bN
T47 chain: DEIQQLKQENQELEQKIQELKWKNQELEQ

4H717-bN = biological target: T48, 4H717-bN
T48 chain: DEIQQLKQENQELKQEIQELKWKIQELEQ

4H72-bN = biological target: T49, 4H72-bN
T49 chain: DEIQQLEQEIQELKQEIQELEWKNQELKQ

4H754-bN = biological target: T50, 4H754-bN
T50 chain: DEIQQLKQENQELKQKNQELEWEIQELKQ

4H797-bN = biological target: T51, 4H797-bN
T51 chain: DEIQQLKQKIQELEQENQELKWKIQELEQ

4H883-bN = biological target: T52, 4H883-bN
T52 chain: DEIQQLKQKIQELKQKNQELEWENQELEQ

4H908-bN = biological target: T53, 4H908-bN
T53 chain: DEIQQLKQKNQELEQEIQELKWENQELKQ

4H918-bN = biological target: T54, 4H918-bN
T54 chain: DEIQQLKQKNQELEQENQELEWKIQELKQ

4H953-bN = biological target: T55, 4H953-bN
T55 chain: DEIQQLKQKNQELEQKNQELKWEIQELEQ

4H967-bN = biological target: T56, 4H967-bN
T56 chain: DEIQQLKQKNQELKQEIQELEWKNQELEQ

interaction score (4H1393-bN): -1.33
interaction score (4H1449-bN): -0.996
interaction score (4H1629-bN): -0.818
interaction score (4H1710-bN): -1.7
interaction score (4H1804-bN): -0.711
interaction score (4H1985-bN): -1.58
interaction score (4H3129-bN): -0.903
interaction score (4H3172-bN): -1.92
interaction score (4H3414-bN): -1.76
interaction score (4H3631-bN): -1.03
interaction score (4H3638-bN): 0.818
interaction score (4H3817-bN): -1.41
interaction score (4H3974-bN): -0.815
interaction score (4H570-bN): -2.48
interaction score (4H584-bN): -2.15
interaction score (4H619-bN): -0.97
interaction score (4H850-bA): -0.881
interaction score (4H850-bN): -1.57
interaction score (4H906-bN): -0.497
Binder: DENQQLEQKIQELKQKNQELEWEIQELEQ [4H1393-bN]

interaction score (4H1446-bN): 0.223
interaction score (4H1828-bN): 0.29
interaction score (4H1845-bN): -1.65
interaction score (4H2442-bN): 0.215
interaction score (4H2576-bN): 1.07
interaction score (4H2610-bN): 0.732
interaction score (4H2618-bN): -0.442
interaction score (4H2667-bN): 0.641
interaction score (4H2697-bN): -0.277
interaction score (4H2729-bN): 0.529
interaction score (4H3112-bN): -0.24
interaction score (4H3185-bN): 0.1
interaction score (4H3189-bN): 0.67
interaction score (4H331-bN): 1.22
interaction score (4H3354-bN): -0.558
interaction score (4H338-bN): -0.426
interaction score (4H3427-bN): 0.852
interaction score (4H3606-bN): -0.294
interaction score (4H370-bN): -0.536
interaction score (4H3782-bN): -0.169
interaction score (4H3843-bN): 1.05
interaction score (4H3855-bN): 0.333
interaction score (4H4001-bN): 1.11
interaction score (4H454-bN): 0.124
interaction score (4H462-bN): -1.74
interaction score (4H568-bN): -0.0813
interaction score (4H607-bN): 0.502
interaction score (4H687-bN): -0.229
interaction score (4H717-bN): -0.982
interaction score (4H72-bN): 0.548
interaction score (4H754-bN): -0.286
interaction score (4H797-bN): -0.329
interaction score (4H883-bN): -0.0261
interaction score (4H908-bN): -0.254
interaction score (4H918-bN): 0.759
interaction score (4H953-bN): -0.0145
interaction score (4H967-bN): -1.04
Binder: DENQQLEQKNQELEQKIQELEWKIQELKQ [4H1446-bN]
